PMC9561270, “Phosphorylation of the auxin signaling transcriptional repressor IAA15 by MPKs is required for the suppression of root development under drought stress in Arabidopsis” (Nucleic Acids Research, 2022)

What was measured:
His-MPK6 = target: T1, His-MPK6 (Arabidopsis thaliana, UniProt Q39026 1-395); test: pull-down; 2 ug GST or GST-IAA15 on glutathione-Sepharose 4B beads; 1 ug His-MPK added, overnight at 4 C; 50 mM Tris-HCl pH 7.5, 200 mM NaCl, 1% Triton X-100, 0.1 mM EDTA, 0.5 mM DTT; detected with anti-His antibodies; settings: both partners purified
T1 construct: also called His-fused MPK6; source: E. coli M15, purified (Ni-NTA agarose); not shown: His, N-terminal, kept

His-MPK3 = target: T2, His-MPK3 (Arabidopsis thaliana, UniProt Q39023 1-370); test: as above; settings: both partners purified
T2 construct: also called His-fused MPK3; source: E. coli M15, purified (Ni-NTA agarose); not shown: His, N-terminal, kept
T2 sequence (looked up): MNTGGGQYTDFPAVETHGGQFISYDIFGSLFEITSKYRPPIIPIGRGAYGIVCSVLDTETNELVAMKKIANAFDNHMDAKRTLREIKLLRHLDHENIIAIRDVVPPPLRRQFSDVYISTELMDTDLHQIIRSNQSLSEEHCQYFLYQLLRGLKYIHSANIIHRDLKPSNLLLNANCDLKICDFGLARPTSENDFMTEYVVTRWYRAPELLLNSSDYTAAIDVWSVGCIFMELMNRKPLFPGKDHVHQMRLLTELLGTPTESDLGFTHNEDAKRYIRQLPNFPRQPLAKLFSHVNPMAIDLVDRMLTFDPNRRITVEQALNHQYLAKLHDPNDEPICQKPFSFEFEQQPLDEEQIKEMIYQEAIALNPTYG

T1 sequence (Q39026 whole entry, the tested form may be a part): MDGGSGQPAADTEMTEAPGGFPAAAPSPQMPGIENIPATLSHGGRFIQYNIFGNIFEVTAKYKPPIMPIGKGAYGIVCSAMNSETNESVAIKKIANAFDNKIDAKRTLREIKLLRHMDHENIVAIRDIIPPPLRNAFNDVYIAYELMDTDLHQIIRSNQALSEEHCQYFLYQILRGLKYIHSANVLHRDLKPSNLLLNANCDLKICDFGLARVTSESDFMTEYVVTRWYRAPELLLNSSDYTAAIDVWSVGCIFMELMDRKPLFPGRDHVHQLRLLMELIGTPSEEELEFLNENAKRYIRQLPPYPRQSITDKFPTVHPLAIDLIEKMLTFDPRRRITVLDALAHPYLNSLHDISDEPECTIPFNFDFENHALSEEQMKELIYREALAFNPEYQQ

B1: GST-IAA15 (natural protein, Arabidopsis thaliana, UniProt Q9C966 1-179, looked up)
chain: MSPEEYVRVWPDSGDLGGTELTLALPGTPTNASEGPKKFGNKRRFLETVDLKLGEAHENNYISSMVTNDQLVGWPPVATARKTVRRKYVKVALDGAAYLRKVDLGMYDCYGQLFTALENMFQGIITICRVTELERKGEFVATYEDKDGDLMLVGDVPWMMFVESCKRMRLMKTGDAIGL
notes: Auxin-responsive protein IAA15, Arabidopsis thaliana, At1g80390, full length, cloned into pGEX-4T-1; also called GST-fused IAA15; GST-IAA15^WT; source: E. coli BL21 (DE3), purified (glutathione Sepharose-4B); not shown: GST, N-terminal, kept
binding result (His-MPK6): binds | binding result (His-MPK3): binds
